Each sequence was assayed on Escherichia coli TOP10 (assay: shrunken log2 fold change of peptide-encoding DNA abundance (4.5 h post-induction vs induction); higher = less antimicrobial activity (less host growth inhibition)). Settings: time post-induction: 4.5 h; library: site-saturation at positions 5, 18, 19, 20.
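Further: peptides expressed intracellularly from a pBAD plasmid library in pooled LB shake-flask culture, induced with 0.3% L-arabinose, DNA abundance read by NGS, three biological replicates, DESeq2 with apeglm shrinkage.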

| Sequence | shrunken log2 fold change |
| --- | --- |
| RRIRVRPPRLPRPRPRPEWSPRP | 0.267 |
| RRIRVRPPRLPRPRPRPRSYPRP | -0.0987 |
| RRIRFRPPRLPRPRPRPMTKPRP | 0.0716 |
| RRIRHRPPRLPRPRPRPLYGPRP | -0.214 |
| RRIRLRPPRLPRPRPRPSQMPRP | -0.261 |
| RRIRYRPPRLPRPRPRPRKHPRP | -0.483 |
| RRIRHRPPRLPRPRPRPDWCPRP | -0.00101 |
| RRIRCRPPRLPRPRPRPRNFPRP | -0.0465 |
| RRIRWRPPRLPRPRPRPCHPPRP | -0.11 |
| RRIRKRPPRLPRPRPRPVRWPRP | 0.809 |
| RRIRIRPPRLPRPRPRPCYTPRP | -0.128 |
| RRIRARPPRLPRPRPRPITIPRP | 0.222 |
| RRIRQRPPRLPRPRPRPDLWPRP | 0.514 |
| RRIRPRPPRLPRPRPRPTWSPRP | 0.324 |
| RRIRHRPPRLPRPRPRPTIAPRP | 0.451 |
| RRIRWRPPRLPRPRPRPVQYPRP | -0.108 |
| RRIRARPPRLPRPRPRPCESPRP | 0.214 |
| RRIRMRPPRLPRPRPRPISGPRP | 0.0247 |
| RRIRHRPPRLPRPRPRPTFNPRP | -0.612 |
| RRIRSRPPRLPRPRPRPEYVPRP | 0.0646 |
| RRIRIRPPRLPRPRPRPQEKPRP | 0.0553 |
| RRIRARPPRLPRPRPRPEAKPRP | 0.73 |
| RRIRMRPPRLPRPRPRPGLFPRP | 0.236 |
| RRIRLRPPRLPRPRPRPHQCPRP | 0.0182 |
| RRIRIRPPRLPRPRPRPLKVPRP | -0.29 |

| Sequence | shrunken log2 fold change |
| --- | --- |
| RRIRCRPPRLPRPRPRPSITPRP | -0.641 |
| RRIRYRPPRLPRPRPRPCISPRP | 0.0212 |
| RRIRHRPPRLPRPRPRPDGFPRP | -0.015 |
| RRIRIRPPRLPRPRPRPQKTPRP | -0.168 |
| RRIRTRPPRLPRPRPRPTNDPRP | -0.547 |
| RRIRMRPPRLPRPRPRPLCTPRP | 1.19 |
| RRIRQRPPRLPRPRPRPVFPPRP | 0.212 |
| RRIRTRPPRLPRPRPRPRDNPRP | -0.239 |
| RRIRNRPPRLPRPRPRPFPPPRP | -0.32 |
| RRIRKRPPRLPRPRPRPANYPRP | 0.0421 |
| RRIRMRPPRLPRPRPRPCSQPRP | -0.00549 |
| RRIRKRPPRLPRPRPRPESIPRP | 0.235 |
| RRIRDRPPRLPRPRPRPATMPRP | 0.168 |
| RRIRFRPPRLPRPRPRPEPWPRP | 0.172 |
| RRIRARPPRLPRPRPRPWTQPRP | 0.0723 |
| RRIRIRPPRLPRPRPRPFHLPRP | -0.0356 |
| RRIRQRPPRLPRPRPRPCMQPRP | -0.238 |
| RRIRERPPRLPRPRPRPSGIPRP | -0.272 |
| RRIRERPPRLPRPRPRPRRMPRP | 0.119 |
| RRIRYRPPRLPRPRPRPWNKPRP | -0.00965 |
| RRIRERPPRLPRPRPRPYMFPRP | -0.736 |
| RRIRVRPPRLPRPRPRPKYGPRP | -0.141 |
| RRIRDRPPRLPRPRPRPHFAPRP | -0.103 |
| RRIRRRPPRLPRPRPRPIFKPRP | 0.196 |
| RRIRQRPPRLPRPRPRPADVPRP | 0.0705 |

| Sequence | shrunken log2 fold change |
| --- | --- |
| RRIRARPPRLPRPRPRPGEKPRP | 0.333 |
| RRIRLRPPRLPRPRPRPWKYPRP | -0.0875 |
| RRIRERPPRLPRPRPRPCFSPRP | -0.0538 |
| RRIRNRPPRLPRPRPRPIFKPRP | -0.174 |
| RRIRKRPPRLPRPRPRPDAFPRP | 0.00489 |
| RRIRLRPPRLPRPRPRPAGVPRP | 0.103 |
| RRIRARPPRLPRPRPRPFKEPRP | -0.0239 |
| RRIRMRPPRLPRPRPRPCNQPRP | -0.0399 |
| RRIRRRPPRLPRPRPRPAREPRP | 0.925 |
| RRIRLRPPRLPRPRPRPTQRPRP | 0.248 |
| RRIRPRPPRLPRPRPRPCIHPRP | -0.252 |
| RRIRLRPPRLPRPRPRPYRHPRP | -0.628 |
| RRIRSRPPRLPRPRPRPHSRPRP | -0.322 |
| RRIRNRPPRLPRPRPRPFWCPRP | 0.000145 |
| RRIRRRPPRLPRPRPRPFLTPRP | 0.228 |
| RRIRHRPPRLPRPRPRPSFEPRP | -0.358 |
| RRIRIRPPRLPRPRPRPGHVPRP | -0.0457 |
| RRIRMRPPRLPRPRPRPYYMPRP | -0.0189 |
| RRIRNRPPRLPRPRPRPKVIPRP | -0.264 |
| RRIRRRPPRLPRPRPRPVTCPRP | -0.108 |
| RRIRQRPPRLPRPRPRPIPKPRP | -0.0574 |
| RRIRQRPPRLPRPRPRPRQYPRP | -0.163 |
| RRIRLRPPRLPRPRPRPRQWPRP | 0.223 |
| RRIRPRPPRLPRPRPRPYESPRP | -0.186 |
| RRIRMRPPRLPRPRPRPRSEPRP | 0.81 |
